The source of these data is patent publication US20030105278A1 (MERK, published 2003).

Like-named read-outs stand apart in the source and are kept apart here. Bridges are numbered along the chain shown (N, C = ends). Bounds are passed on as bounds.

For assay [1], the target named is T1, human MCH receptor expressed from the open reading frame cDNA SEQ. ID. NO. 1 in 293-AEQ17 cells (human, UniProt Q99705 1-353). Kind of assay: cell-based or functional assay.
Assay [2] addresses T2, human MCH receptor (membranes from a stable CHO or HEK-293 cell line) (human, UniProt Q99705 1-353).
T2 construct: whole, on cells; also called cloned human MCH receptor (CHO clone)
Kind of assay: competition vs [125I]-human MCH (Phe13,Tyr19); human MCH receptor cell membranes (Example 3).

Assay [3] concerns the target T1, human MCH receptor expressed from the …. Kind of assay: cell-based or functional assay. The source holds these as a separate data set.
The target is the same in assay [4]. Kind of assay: cell-based or functional assay. This is another data set of the same source.
In assay [5] the target is T2, human MCH receptor (membranes from a …). Briefly: competition vs [125I]-human MCH (Phe13,Tyr19); human MCH receptor cell membranes (Example 3). The source holds these as a separate data set.
Assay [6] concerns the target T1, human MCH receptor expressed from the …. Briefly: cell-based or functional assay. This is another data set of the same source.

T2 sequence (Q99705 whole entry): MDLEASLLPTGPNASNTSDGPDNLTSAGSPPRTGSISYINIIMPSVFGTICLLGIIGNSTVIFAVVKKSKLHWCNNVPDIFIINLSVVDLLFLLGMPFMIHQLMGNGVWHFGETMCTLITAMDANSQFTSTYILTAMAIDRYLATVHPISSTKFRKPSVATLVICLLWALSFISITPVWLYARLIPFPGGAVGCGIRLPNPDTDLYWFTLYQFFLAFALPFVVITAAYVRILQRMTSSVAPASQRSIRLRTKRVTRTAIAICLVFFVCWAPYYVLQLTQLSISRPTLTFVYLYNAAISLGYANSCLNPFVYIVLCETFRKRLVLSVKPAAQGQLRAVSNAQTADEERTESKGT
T1 sequence (Q99705 whole entry): as above

B1: MCH analog SEQ. ID. NO. 46 (position 6: Ac-D-Glu) (peptide)
peptide: XCMLGRVYRPC
modifications: Ac-D-Glu at position 6; C-terminal amide, Cys-Cys disulfide as in SEQ. ID. NO. 7
B1 returned an Activation % in assay [1] of 85%.

B2: MCH analog SEQ. ID. NO. 57 (position 10: D-Pro) (peptide)
peptide: RCMLXRVYRPC
modifications: D-Pro at position 10; N-terminal acetyl, C-terminal amide, Cys-Cys disulfide as in SEQ. ID. NO. 7
notes: ID; NO; 7 peptide; MCH position numbering
The molecule B2 gave a half-maximal inhibitory concentration (IC50) in assay [2] of 1.2 nM. Also, in assay [3], the Activation % is 90% and the half-maximal effective concentration (EC50) is 190 nM.

B3: MCH analog SEQ. ID. NO. 30 (Sar^15) (peptide)
peptide: RCMLGRVYRXC
modifications: sarcosine at position 15; N-terminal acetyl, C-terminal amide, Cys-Cys disulfide as in SEQ. ID. NO. 7
In the case of B3, in assay [4], the Activation % is 113% and the response was half-maximal at 25 nM (EC50).

B4: MCH analog SEQ. ID. NO. 59 (position 10: D-Lys) (peptide)
peptide: RCMLXRVYRPC
modifications: D-Lys at position 10; N-terminal acetyl, C-terminal amide, Cys-Cys disulfide as in SEQ. ID. NO. 7
In the case of B4, in assay [3], the “EC50” value was greater than 10000 nM.

B5: MCH analog SEQ. ID. NO. 60 (position 10: β-Ala) (peptide)
peptide: RCMLXRVYRPC
modifications: β-Ala at position 10; N-terminal acetyl, C-terminal amide, Cys-Cys disulfide as in SEQ. ID. NO. 7
As for B5, in assay [3], the Activation % amounted to 3.2% and the “EC50” value was greater than 1000 nM.

B6: MCH analog SEQ. ID. NO. 38 (position 6: Ac) (peptide)
peptide: Ac-CMLGRVYRPC-NH2
modifications: disulfide 1-10
SMILES: CSCC[C@@H]1NC(=O)[C@@H](NC(C)=O)CSSC[C@@H](C(N)=O)NC(=O)[C@@H]2CCCN2C(=O)[C@H](CCCNC(=N)N)NC(=O)[C@H](Cc2ccc(O)cc2)NC(=O)[C@H](C(C)C)NC(=O)[C@H](CCCNC(=N)N)NC(=O)CNC(=O)[C@H](CC(C)C)NC1=O
notes: as for B2
Take B6: the 50% inhibitory concentration (IC50) in assay [5] is 1.6 nM. In assay [1], the Activation % worked out at 82% and the half-maximal effective concentration (EC50) was 144 nM.

B7: MCH analog SEQ. ID. NO. 67 (position 13: Phe(pNH2)) (peptide)
peptide: RCMLGRVXRPC
modifications: Phe(pNH2) at position 13; N-terminal acetyl, C-terminal amide, Cys-Cys disulfide as in SEQ. ID. NO. 7
Turning to B7, in assay [6], the Activation % is 88%.

B8: MCH analog SEQ. ID. NO. 68 (position 13: Phe(pCOOH)) (peptide)
peptide: RCMLGRVXRPC
modifications: Phe(pCOOH) at position 13; N-terminal acetyl, C-terminal amide, Cys-Cys disulfide as in SEQ. ID. NO. 7
With B8, the concentration giving a half-maximal response (EC50) in assay [6] is greater than 10000 nM.

B9: MCH analog SEQ. ID. NO. 44 (position 6: Ac-D-Asn) (peptide)
peptide: XCMLGRVYRPC
modifications: Ac-D-Asn at position 6; C-terminal amide, Cys-Cys disulfide as in SEQ. ID. NO. 7
As to B9, in assay [1], the Activation % is 94%.

B10: MCH analog SEQ. ID. NO. 55 (position 10: D-Leu) (peptide)
peptide: RCMLXRVYRPC
modifications: D-Leu at position 10; N-terminal acetyl, C-terminal amide, Cys-Cys disulfide as in SEQ. ID. NO. 7
In the case of B10, the Activation % in assay [3] turned out to be 23%.

B11: MCH analog SEQ. ID. NO. 66 (position 13: Phe(pF)) (peptide)
peptide: RCMLGRVXRPC
modifications: p-fluoro-phenylalanine at position 13; N-terminal acetyl, C-terminal amide, Cys-Cys disulfide as in SEQ. ID. NO. 7
In the case of B11, the Activation % in assay [6] was 98%.

B12: MCH analog SEQ. ID. NO. 41 (position 6: Ac-D-Arg) (peptide)
peptide: XCMLGRVYRPC
modifications: Ac-D-Arg at position 6; C-terminal amide, Cys-Cys disulfide as in SEQ. ID. NO. 7
notes: ID; NO; 7 peptide; MCH position numbering; 15 (D-Arg^6)
B12: in assay [5], the IC50 turned out to be 0.46 nM. For the same molecule, in assay [1], the Activation % amounted to 86% and a half-maximal response (EC50) required 45 nM.

B13: MCH analog SEQ. ID. NO. 43 (position 6: Ac-D-Pro) (peptide)
peptide: XCMLGRVYRPC
modifications: Ac-D-Pro at position 6; C-terminal amide, Cys-Cys disulfide as in SEQ. ID. NO. 7
Regarding B13, in assay [1], the Activation % was 96%.

B14: MCH analog SEQ. ID. NO. 32 (position 6: Ac-Nle) (peptide)
peptide: XCMLGRVYRPC
modifications: Ac-Nle (acetyl-norleucine) at position 6; C-terminal amide, Cys-Cys disulfide as in SEQ. ID. NO. 7
B14: in assay [1], the Activation % amounted to 107%.

B15: MCH analog SEQ. ID. NO. 45 (position 6: Ac-D-Ser) (peptide)
peptide: XCMLGRVYRPC
modifications: Ac-D-Ser at position 6; C-terminal amide, Cys-Cys disulfide as in SEQ. ID. NO. 7
notes: as for B2
Consider B15, for which the IC50 in assay [5] is 2.3 nM. Moreover, the Activation % in assay [1] was 93%.

B16: MCH analog SEQ. ID. NO. 61 (position 10: γ-Abu) (peptide)
peptide: RCMLXRVYRPC
modifications: γ-Abu (gamma-aminobutyric acid) at position 10; N-terminal acetyl, C-terminal amide, Cys-Cys disulfide as in SEQ. ID. NO. 7
The molecule B16 registered an Activation % in assay [3] of 101%.

B17: MCH analog SEQ. ID. NO. 37 (position 6: H) (peptide)
peptide: H-CMLGRVYRPC-NH2
modifications: disulfide 1-10
notes: as for B2
As for B17, the IC50 in assay [5] was 12 nM. In addition, in assay [1], the Activation % stood at 120% and the response was half-maximal at 809 nM (EC50).

B18: MCH analog SEQ. ID. NO. 49 (position 10: Nle) (peptide)
peptide: RCMLXRVYRPC
modifications: norleucine at position 10; N-terminal acetyl, C-terminal amide, Cys-Cys disulfide as in SEQ. ID. NO. 7
For the molecule B18, in assay [3], the Activation % amounted to 106%.

B19: MCH analog SEQ. ID. NO. 56 (position 10: D-Nle) (peptide)
peptide: RCMLXRVYRPC
modifications: D-Nle at position 10; N-terminal acetyl, C-terminal amide, Cys-Cys disulfide as in SEQ. ID. NO. 7
In the case of B19, the Activation % in assay [3] was determined as 33%.

B20: MCH analog SEQ. ID. NO. 69 (position 13: Cha) (peptide)
peptide: RCMLGRVXRPC
modifications: Cha (cyclohexylalanine) at position 13; N-terminal acetyl, C-terminal amide, Cys-Cys disulfide as in SEQ. ID. NO. 7
B20 showed an Activation % in assay [6] of 93%.
